This note sets out measurements from patent US20090271896A1 (SAMUEL ROBERTS NOBLE FOUNDATION, published 2009).

For test [1], the target named is T1, AtVIP2 (Arabidopsis VirE2-Interacting Protein 2), largest cDNA clone in pGAD424 (Arabidopsis thaliana, UniProt Q9FPW4 59-614).
T1 construct: also called At5g59710; GenBank AF295433
T1 sequence: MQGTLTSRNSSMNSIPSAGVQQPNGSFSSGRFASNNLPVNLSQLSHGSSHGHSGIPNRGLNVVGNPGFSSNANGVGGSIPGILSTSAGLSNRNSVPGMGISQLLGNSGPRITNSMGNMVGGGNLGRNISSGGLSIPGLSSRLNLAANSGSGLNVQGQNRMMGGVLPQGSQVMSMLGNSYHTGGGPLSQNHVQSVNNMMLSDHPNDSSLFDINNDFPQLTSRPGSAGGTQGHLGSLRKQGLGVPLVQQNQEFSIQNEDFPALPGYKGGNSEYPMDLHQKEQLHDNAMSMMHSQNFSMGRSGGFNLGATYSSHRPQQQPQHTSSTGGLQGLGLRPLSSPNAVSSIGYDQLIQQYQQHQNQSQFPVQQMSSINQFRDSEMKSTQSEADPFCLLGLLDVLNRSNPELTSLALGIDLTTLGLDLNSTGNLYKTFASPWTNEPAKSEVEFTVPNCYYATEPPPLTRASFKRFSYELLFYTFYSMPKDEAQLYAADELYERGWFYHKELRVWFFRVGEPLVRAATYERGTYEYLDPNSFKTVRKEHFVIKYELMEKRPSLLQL
Kind of test: yeast two-hybrid, HIS3 and beta-galactosidase reporters.

For test [2], the target named is T2, NbVIP2 (N. benthamiana VIP2) in pGAD424 (Nicotiana benthamiana, UniProt Q52JK6 1-603).
T2 construct: also called pGAD-NbVIP2; GenBank DQ000202
T2 sequence: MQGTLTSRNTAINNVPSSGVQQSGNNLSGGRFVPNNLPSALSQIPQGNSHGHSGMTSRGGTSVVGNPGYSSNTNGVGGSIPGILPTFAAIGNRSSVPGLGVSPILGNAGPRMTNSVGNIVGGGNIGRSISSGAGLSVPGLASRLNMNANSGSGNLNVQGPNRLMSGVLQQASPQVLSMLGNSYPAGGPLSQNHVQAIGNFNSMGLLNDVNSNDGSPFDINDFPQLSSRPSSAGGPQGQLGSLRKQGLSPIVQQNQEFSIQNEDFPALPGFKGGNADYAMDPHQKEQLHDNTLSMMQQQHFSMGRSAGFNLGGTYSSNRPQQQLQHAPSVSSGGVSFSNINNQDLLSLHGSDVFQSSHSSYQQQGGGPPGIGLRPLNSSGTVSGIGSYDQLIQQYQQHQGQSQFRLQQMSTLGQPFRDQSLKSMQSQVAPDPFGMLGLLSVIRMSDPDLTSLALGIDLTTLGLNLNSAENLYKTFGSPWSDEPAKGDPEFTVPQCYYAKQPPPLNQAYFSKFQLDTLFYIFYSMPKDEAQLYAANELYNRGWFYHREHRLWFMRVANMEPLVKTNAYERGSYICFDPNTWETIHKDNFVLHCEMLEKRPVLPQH
Kind of test: yeast two-hybrid, growth on triple dropout (-Leu/-Trp/-His) plates.

B1: human lamin C (other)
chain: SEEVVSREVSGIKAAYEAELGDARKTLDSVAKERARLQLELSKVREEFKELKARNTKKEGDLIAAQARLKDLEALLNSKEAALSTALSEKRTLEGELHDLRGQVAKLEAALGEAKKQLQDEMLRRVDAENRLQTMKEELDFQKNIYSEELRETKRRHETRLVEID
notes: also called pSTT-LaminC
Consider B1, for which the binding result in test [1] and in test [2] was “no binding” each time.
